Data taken from PMC4380140 (Journal of biomolecular screening, 2012).

What was measured:
dynamic light scattering = biological target: the molecule itself; assay: dynamic light scattering
SEC = biological target: the molecule itself; assay: SEC

Row | Protein | stoichiometry N (dynamic light scattering) | binding result (SEC)
1 | ectodomain ephrinB3 (ed-ephrinB3), amino acids 28-227 of mouse ephrinB3 extracellular domain (domain or fragment, UniProt O35393 28-227, looked up) LSLEPVYWNSANKRFQAEGGYVLYPQIGDRLDLLCPRARPPGPHSSPSYEFYKLYLVEGAQGRRCEAPPAPNLLLTCDRPDLDLRFTIKFQEYSPNLWGHEFRSHHDYYIIATSDGTREGLESLQGGVCLTRGMKVLLRVGQSPRGGAVPRKPVSEMPMERDRGAAHSAEPGRDTIPGDPSSNATSRGAEGPLPPPSMPA | 104 monomers per particle | 
2 | ectodomain ephrinB1 (ed-ephrinB1), amino acids 26-236 of mouse ephrinB1 extracellular domain (domain or fragment, UniProt P52795 26-236, looked up) TPLAKNLEPVSWSSLNPKFLSGKGLVIYPKIGDKLDIICPRAEAGRPYEYYKLYLVRPEQAAACSTVLDPNVLVTCNKPHQEIRFTIKFQEFSPNYMGLEFKKYHDYYITSTSNGSLEGLENREGGVCRTRTMKIVMKVGQDPNAVTPEQLTTSRPSKESDNTVKTATQAPGRGSQGDSDGKHETVNQEEKSGPGAGGGGSGDSDSFFNSK |  | binds
